Starred links: 1 amine or outer side, 2 acyl side, 3 side chain; linkers in the order of their positions; H or OH if unused. Positions of bridges follow the written chain, without caps; N, C: chain ends. Non-standard residues stand in square brackets, D forms with d. Primed or numbered codes have the meaning given here. PyrS2″ = (S)-3-amino-1-((pent-4-en-1-yloxy)carbonyl)pyrrolidine-3-carboxylic acid (stapling residue), C=CCCCOC(=O)N1CC[C@@](N[*:1])(C(=O)[*:2])C1; B5(18) = 2,2-bis(4-pentenyl)glycine (2-amino-2-(pent-4-en-1-yl)hept-6-enoic acid), stitching residue, C=CCCCC(CCCC=C)(N[*:1])C(=O)[*:2]; B5(4) = 2,2-bis(4-pentenyl)glycine = 2-amino-2-(pent-4-en-1-yl)hept-6-enoic acid (stitching residue), C=CCCCC(CCCC=C)(N[*:1])C(=O)[*:2]; B5(5) = 2,2-bis(4-pentenyl)glycine, 2-amino-2-(pent-4-en-1-yl)hept-6-enoic acid (stitching residue), C=CCCCC(CCCC=C)(N[*:1])C(=O)[*:2]; B5(8) = 2,2-bis(4-pentenyl)glycine (2-amino-2-(pent-4-en-1-yl)hept-6-enoic acid, stitching residue), C=CCCCC(CCCC=C)(N[*:1])C(=O)[*:2]; TfeGA = (S)-2-amino-3-((carboxymethyl)(2,2,2-trifluoroethyl)amino)propanoic acid, O=C([C@H](CN(CC(=O)[*:3])CC(F)(F)F)N[*:1])[*:2]; PyrS2 = (S)-3-amino-1-((pent-4-en-1-yloxy)carbonyl)pyrrolidine-3-carboxylic acid, C=CCCCOC(=O)N1CC[C@@](N[*:1])(C(=O)[*:2])C1; PyrS3 = (S)-3-amino-1-((hex-5-en-1-yloxy)carbonyl)pyrrolidine-3-carboxylic acid, C=CCCCCOC(=O)N1CC[C@@](N[*:1])(C(=O)[*:2])C1; SeN = (S)-5-(((allyloxy)carbonyl)(methyl)amino)-2-amino-2-methylpentanoic acid, C=CCOC(=O)N(C)CCC[C@](C)(N[*:1])C(=O)[*:2]; B5(13) = 2-amino-2-(pent-4-en-1-yl)hept-6-enoic acid (two alkene chains), C=CCCCC(CCCC=C)(N[*:1])C(=O)[*:2]; B5(3) = 2,2-bis(4-pentenyl)glycine (stitching residue), C=CCCCC(CCCC=C)(N[*:1])C(=O)[*:2]; Trp(5-Cl) = N[C@@H](Cc1c[nH]c2ccc(Cl)cc12)C(=O)O; Phe(2-Cl) = N[C@@H](Cc1ccccc1Cl)C(=O)O; 2Nal = N[C@@H](Cc1ccc2ccccc2c1)C(=O)O; Phe(2-Me) = Cc1ccccc1C[C@H](N)C(=O)O; Bta = N[C@@H](Cc1csc2ccccc12)C(=O)O; αAllylPro = C=CC[C@@]1(C(=O)O)CCCN1; tBuAla = CC(C)(C)C[C@H](N)C(=O)O; 2Thi = N[C@@H](Cc1cccs1)C(=O)O; 3Thi = N[C@@H](Cc1ccsc1)C(=O)O; S8 = C=CCCCCCC[C@](C)(N)C(=O)O; hLeu = CC(C)CC[C@H](N)C(=O)O
B1: I-1002 (peptide)
peptide: Ac-[αAllylPro]D[tBuAla][B5(18)]D[TfeGA]ALFN[PyrS2″][Phe(2-Cl)][Bta]Q-NH2
modifications: staple 1-4, 4-11
B2: I-702 (peptide)
peptide: Ac-[αAllylPro]DI[B5(8)]D[TfeGA]AAFN[S8][3Thi][Bta]H-NH2
modifications: staple 1-4, 4-11
B3: I-695 (peptide)
peptide: Ac-[αAllylPro]D[tBuAla][B5(8)]DDAAFN[PyrS2″][3Thi][Bta]H-NH2
modifications: staple 1-4, 4-11
B4: I-698 (peptide)
peptide: Ac-[αAllylPro]D[tBuAla][B5(8)]DEAAFN[PyrS2″][3Thi][Bta]H-NH2
modifications: staple 1-4, 4-11
B5: I-700 (peptide)
peptide: Ac-[αAllylPro]DI[B5(8)]D[TfeGA]AAFN[S8][3Thi][Bta]Q-NH2
modifications: staple 1-4, 4-11
B6: I-682 (peptide)
peptide: Ac-[αAllylPro]D[tBuAla][B5(4)]DEAAFN[S8][3Thi][Bta]Q-NH2
modifications: staple 1-4, 4-11; not fully specified
B7: I-699 (peptide)
peptide: Ac-[αAllylPro]DI[B5(8)]D[TfeGA]AAFN[S8]F[Bta]Q-NH2
modifications: staple 1-4, 4-11
B8: I-792 (peptide)
peptide: Ac-[αAllylPro]D[tBuAla][B5(3)]DDAAFN[PyrS2][3Thi]WH-NH2
modifications: staple 1-4, 4-11
B9: I-793 (peptide)
peptide: Ac-[αAllylPro]D[tBuAla][B5(3)]DDAAFN[PyrS2][Bta][Bta]H-NH2
modifications: staple 1-4, 4-11
B10: I-782 (peptide)
peptide: Ac-[αAllylPro]D[tBuAla][B5(13)]DDAAFN[PyrS2][Phe(2-Me)][Bta]H-NH2
modifications: staple 1-4, 4-11
B11: I-773 (peptide)
peptide: Ac-[αAllylPro]D[tBuAla][B5(13)]DDAAFN[SeN][3Thi][Bta]H-NH2
modifications: staple 1-4, 4-11
B12: I-774 (peptide)
peptide: Ac-[αAllylPro]D[tBuAla][B5(13)]DDAAFN[SeN][3Thi][Bta]H-NH2
modifications: staple 1-4, 4-11
B13: I-790 (peptide)
peptide: Ac-[αAllylPro]D[tBuAla][B5(3)]DDAAFN[PyrS2][3Thi][2Nal]H-NH2
modifications: staple 1-4, 4-11
B14: I-788 (peptide)
peptide: Ac-[αAllylPro]D[hLeu][B5(3)]DDAAFN[PyrS2][3Thi][Bta]H-NH2
modifications: staple 1-4, 4-11
B15: I-791 (peptide)
peptide: Ac-[αAllylPro]D[tBuAla][B5(5)]DDAAFN[PyrS2][3Thi][Trp(5-Cl)]H-NH2
modifications: staple 1-4, 4-11
B16: I-776 (peptide)
peptide: Ac-[αAllylPro]D[tBuAla][B5(13)]DDAAFN[PyrS3][3Thi][Bta]H-NH2
modifications: staple 1-4, 4-11
B17: I-779 (peptide)
peptide: Ac-[αAllylPro]D[tBuAla][B5(13)]DDAAFN[PyrS2][2Thi][Bta]H-NH2
modifications: staple 1-4, 4-11

molecular target: full-length beta-Catenin (Uniprot ID P35222) (Homo sapiens (Human)) (UniProt P35222); assay: fluorescence polarization competition; displaces 5FAM-TCF4(10-53) from full-length beta-catenin
Target sequence in this assay (P35222 2-781 limits assumed): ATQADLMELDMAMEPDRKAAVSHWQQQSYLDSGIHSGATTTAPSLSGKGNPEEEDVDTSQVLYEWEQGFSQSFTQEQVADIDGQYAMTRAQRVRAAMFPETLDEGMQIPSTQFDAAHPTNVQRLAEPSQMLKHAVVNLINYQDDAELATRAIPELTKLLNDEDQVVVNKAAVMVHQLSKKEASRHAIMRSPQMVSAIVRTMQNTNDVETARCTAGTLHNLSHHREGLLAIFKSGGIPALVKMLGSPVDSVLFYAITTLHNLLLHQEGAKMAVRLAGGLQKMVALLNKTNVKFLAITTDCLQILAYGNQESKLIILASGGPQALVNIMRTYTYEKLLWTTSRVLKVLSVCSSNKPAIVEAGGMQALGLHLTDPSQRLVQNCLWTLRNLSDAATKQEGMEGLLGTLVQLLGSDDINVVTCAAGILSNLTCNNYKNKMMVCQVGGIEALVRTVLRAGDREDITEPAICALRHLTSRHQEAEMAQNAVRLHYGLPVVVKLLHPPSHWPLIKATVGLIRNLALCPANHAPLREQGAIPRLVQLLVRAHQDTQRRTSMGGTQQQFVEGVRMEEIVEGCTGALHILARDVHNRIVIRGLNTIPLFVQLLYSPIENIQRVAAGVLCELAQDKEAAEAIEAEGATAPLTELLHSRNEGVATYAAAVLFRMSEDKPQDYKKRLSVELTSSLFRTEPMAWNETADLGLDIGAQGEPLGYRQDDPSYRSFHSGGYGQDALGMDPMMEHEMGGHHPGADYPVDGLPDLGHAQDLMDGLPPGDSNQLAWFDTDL

| EC50 [nM] | Binder |
| --- | --- |
| 9 | B1 |

molecular target: full-length beta-Catenin (Uniprot ID P35222) (Homo sapiens (Human)) (UniProt P35222); assay: fluorescence polarization competition; full-length beta-catenin; competitor displaced: 5FAM-TCF4 10-53
Target sequence in this assay (P35222 2-781 limits assumed): as above

| IC50 [nM] | Binder |
| --- | --- |
| 76 | B2 |
| 5 | B3 |
| 5 | B4 |
| 49 | B5 |
| 41 | B6 |
| 43 | B7 |

molecular target: full-length beta-Catenin (Uniprot ID P35222) (Homo sapiens (Human)) (UniProt P35222); assay: fluorescence polarization competition; peptide displaces 5FAM-TCF4(10-53) from full-length beta-catenin
Target sequence in this assay (P35222 2-781 limits assumed): as above

| IC50 [nM] | Binder |
| --- | --- |
| 20 | B8 |
| 14 | B9 |
| 6 | B10 |
| 167 | B11 |
| 38 | B12 |
| 24 | B13 |
| 5 | B14 |
| 310 | B15 |
| 5 | B16 |
| 5 | B17 |

molecular target: Bcat-Halo (UniProt P35222); assay: NanoBRET Abs IC50, Bcat-Halo/TCF4-Luc in HEK293 cells
Sequence (P35222 whole entry): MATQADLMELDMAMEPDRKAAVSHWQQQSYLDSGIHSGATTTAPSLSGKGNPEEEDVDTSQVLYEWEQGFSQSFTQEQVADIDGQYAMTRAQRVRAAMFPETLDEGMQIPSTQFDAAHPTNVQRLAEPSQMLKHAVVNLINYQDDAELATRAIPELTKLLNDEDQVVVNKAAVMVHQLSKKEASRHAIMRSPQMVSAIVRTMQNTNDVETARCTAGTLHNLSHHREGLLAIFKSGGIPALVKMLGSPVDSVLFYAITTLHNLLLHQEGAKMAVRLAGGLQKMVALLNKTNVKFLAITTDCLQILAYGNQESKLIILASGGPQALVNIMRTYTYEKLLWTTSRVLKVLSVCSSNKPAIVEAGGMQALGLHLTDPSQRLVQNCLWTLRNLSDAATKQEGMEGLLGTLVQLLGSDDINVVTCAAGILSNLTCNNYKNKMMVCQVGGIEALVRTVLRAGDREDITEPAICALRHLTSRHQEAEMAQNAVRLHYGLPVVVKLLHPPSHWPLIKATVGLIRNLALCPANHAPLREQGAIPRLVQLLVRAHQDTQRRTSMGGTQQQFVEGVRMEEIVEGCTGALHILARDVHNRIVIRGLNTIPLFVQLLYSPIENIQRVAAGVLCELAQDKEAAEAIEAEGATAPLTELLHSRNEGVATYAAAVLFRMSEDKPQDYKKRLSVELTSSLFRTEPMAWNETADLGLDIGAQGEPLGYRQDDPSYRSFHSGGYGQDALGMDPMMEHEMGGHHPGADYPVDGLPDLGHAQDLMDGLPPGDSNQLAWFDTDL

| IC50 [nM] | Binder |
| --- | --- |
| 29800 | B1 |

molecular target: full-length beta-Catenin (Uniprot ID P35222) (Homo sapiens (Human)) (UniProt P35222); assay: fluorescence polarization competition; 10 nM full-length beta-catenin + 10 nM 5FAM-TCF4(10-53) probe
Target sequence in this assay (P35222 whole entry, one chain of several): as the sequence (P35222 whole entry) above

| IC50 [nM] | Binder |
| --- | --- |
| 9 | B1 |

molecular target: full-length beta-Catenin (Uniprot ID P35222) (Homo sapiens (Human)) (UniProt P35222); assay: fluorescence polarization competition; full-length beta-catenin + 5FAM-TCF4(10-53) probe; peptide titrated
Target sequence in this assay (P35222 2-781 limits assumed): as the sequence (P35222 2-781 limits assumed) above

| EC50 [nM] | Binder |
| --- | --- |
| 76 | B2 |
| 5 | B3 |
| 5 | B4 |
| 49 | B5 |
| 43 | B7 |

molecular target: full-length beta-Catenin (Uniprot ID P35222) (Homo sapiens (Human)) (UniProt P35222); assay: fluorescence polarization competition; full-length beta-catenin, competitor 5FAM-TCF4(10-53) probe
Target sequence in this assay (P35222 2-781 limits assumed): as above

| EC50 [nM] | Binder |
| --- | --- |
| 167 | B11 |
| 38 | B12 |
| 5 | B16 |
| 5 | B17 |

molecular target: full-length beta-Catenin (Uniprot ID P35222) (Homo sapiens (Human)) (UniProt P35222); assay: fluorescence polarization competition: peptide titrated against 10 nM full-length beta-catenin + 10 nM 5FAM-TCF4(10-53) probe
Target sequence in this assay (P35222 2-781 limits assumed): as above

| EC50 [nM] | Binder |
| --- | --- |
| 20 | B8 |
| 14 | B9 |
| 6 | B10 |
| 24 | B13 |
| 5 | B14 |
| 310 | B15 |
